# From the supplement of paper PMC9170038
# Tested on: MS2 coat protein
# Assay: apparent KD of MS2 coat protein; higher = weaker reporter binding
# Conditions: Eterna round: R107; input ligand: arginine 13.2 mM
# Outline: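 Designed RNA switches were made by on-chip transcription from Illumina sequencing clusters and then titrated with SNAP-549-labelled MS2 coat protein. Twofold steps ran from 0.7 or 1.5 nM to 3 µM, each lasting 0.8–1.5 h early and 10–20 min late, in 100 mM Tris-HCl pH 7.5, 80 mM KCl, 4 mM MgCl2, without or with constant ligand. Apparent KD is the per-design median of normalised cluster binding-curve fits.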
row,Sequence,apparent KD of MS2 coat protein
1,ACAUGAGGAUCACCCAUGUAUUCAUCAGAAGGAGCGUGGAAUAACACAGGUAGGUCGCUGAUUAUUUGUUAAAUAAAUUCGUGUA [JR_Nu_SSArginiA_Sub023],19.3 nM
2,UAUAUAUAUAGGGAUACCAGCAGAGAAAACGUUUAUCCUAACAUGAGGAUCACCCAUGUAUGCCCUUGGCAGCUUUAUAUAUAUA [8.F],23.6 nM
3,AGAGUUAGACAAAAGUCUAGCUCACCAGAAGGAGCGUCCGAAAGGACAGGUAGGUCGCUGGUGCAUGAGGAUCACCCAUGUUCCU [ArgAS 20 #OpenEnded #AlternativeMS2],26.9 nM
4,AAUAUAUAUCACGAACUGUGGUGUAUGUUGCGAGGACCGGUACGGCCGCCACUCGGCCGGUGGUACAUGAGGAUCACCCAUGUUG [XTryp A #9],35.3 nM
5,CUCAUCCACGCGGCCGCCACUAUAUUGUGGUGUGAAUGUGACGUAUUACAAGAGGAUCACCCUUGUAGGACCGGGCGUGGAUGAG [Tryp B Ex Mod1],28.5 nM
6,ACGUCUCGAAAACUCGUAGUAACUAUAGAUACCAGUAGCGAGAGUUACCCUUGGCAGCUACAUGAGGAUCACCCAUGUACGAGGA [XTheo A #28],16.4 nM
7,CACGAAAGAUCGGCCGCCACUAACCUGUGUGUACUAGCACAUGAGGAUCACCCAUGUUCUUGCGUUAGGACCGGGAUUGAGCGUG [#04 Exclusion Tryptophan B],20.9 nM
8,AUCGUACCUGAUGAUACCAGCAUGUGCUCGUAACAUGAGGAUCACCCAUGUGAUCAGUAAUGCCCUUGGCAGCAUGAUCGGUACA [Same State - Theophylline B (Freestyle 17)],58.8 nM
9,UGACAGAUAACCGCUGGUGCUCUCGAGUUGCGAGGACCGGUACGGCCGCCACUCGACAACAUGAGGAUCACCCAUGUUGCGGGUC [Lareara],30.7 nM
10,AGGACGGUCGGAAGGAGCGGUACAUGAGGAUCACCCAUGUACCUCUGGGCAUCCGUAGUGUGCCAGGUAGGUCGCCGAUUGCGGG [Lareerra],15.7 nM
11,GCUAGGUCUACGGCCGCCACUAGACGUGGGUAAGACAUGAGGAUCACCCAUGUACUACGGGCGAUUAGGACCGGGUAGACCUAGC [SSTB NP+V+V2 #16 Same Structure],50.5 nM
12,GUACCGUAAACGGCCGCCACUGACAUGAGGAUCACCCAUGUGCUGGUGGUGCACAACCUCAGGUUCAGGACCGGGUUUCCGAGCU [theeternabot_exclusion_MS2_Trp_B_50],23 nM
13,GGGCCCGGGCGCGAGCCCGGGCCCAUUGAUACCAGUGAAAAUAUACGCCCUUGGCAGCGAAUCCUAACAUGAGGAUCACCCAUGU [5.A],37.7 nM
14,AUCAUCAGUUCGGCCGCCACUGUUUGGCACAGUUGUAUCGUACAUGAGGAUCACCCAUGUCACCACAGGACCGGGAACGCCGUCG [theeternabot_exclusion_MS2_Trp_B_1],16.3 nM
15,AGUCUUAUAGGAAGGAGCGCAAUCAUAACAUGAGGAUCACCCAUGUCGAGGUGAGGGUCAUUGCAGGUAGGUCGCCUAACUAAGA [Same State - Arginine B (Freestyle 8)],126 nM
16,CCCGUAAAGGCGGCCGCCACUGUAUGACAUGAGGAUCACCCAUGUAGGGAAAAUGCGAUGGUCGUCAGGACCGGGCCUCUGGCAU [theeternabot_exclusion_MS2_Trp_B_5],17.4 nM
17,UGACGAGGCCUGGAUACCAGCGACAUGAGGAUCACCCAUGUAUGAGGAUCAGCCAUGUUAUGCCCUUGGCAGCCACGAAGGUCAG [WQQMULLIN],21.6 nM
18,UGUAUGGACUGAAGGAGCGGGUAAUAAACCUGAGGAUCACCCAGGUAAUAGGCGAAAGCCGCCCAGGUAGGUCGCAGUCCAUACU,13.2 nM
19,GAUGAUAUUGCAGAUACCAGACACAUGAGGAUCACCCAUGUCGCUGAGUUGCUGGAUCGUGUCCCUUGGCAGCUGCGAUAUCAUC [Belgium],18.3 nM

row,Sequence,apparent KD of MS2 coat protein
1,GCGACCCUGAGAUCCUACGUAACGUGAACACGAGGACCGGUACGGCCGCCACUCGAGAGAACAUGAGGAUCACCCAUGUCUGAGC [e-trypA-0],17.3 nM
2,UCGUGUAUAUCGGAUACCAGUGAGAAGGAUACAUGAGGAUCACCCAUGUGAGUUGAUGUACACCCUUGGCAGCUGUAUAUAUCUA [.plullin],36 nM
3,ACAUGAGGAUCACCCAUGUACAUGAGGGAAGGAGCGGUACAUGAGCCAGGUAGGUCGCCCAUGAGCAUCAGGCAUGUACAUCAGC [kokmmullin],47.6 nM
4,AGAUGACACAGUGGAUAGCAAGAUGCCGAUACCAGCUAGGAAACUAGCCCUUGGCAGCGGUACAUGAGGAUCACCCAUGUAUCCU [EThA NP+V+V2 #10],12.4 nM
5,ACCUCACUCUCUGAUACCAGCUAAUAACAUGAGGAUCACCCAUGUCAGACUUGUAUUGAUAGCCCUUGGCAGCAGAGGUAACUGC [Theo B Ex t2],9.42 nM
6,AGACAUGAGGAUCACCCAUGUAGUACGGAUACCAGAUCCAGAUGCGUCCCUUGGCAGCUGUGGUACAGCGUUACAUCGCUCGUAG [Exclusion - Theophylline A (Freestyle 23)],16 nM
7,GCCAGUCAUAGCAGGGCAAAUAUACUCGAAGGAGCGUCAUAGUAGGCAGGUAGGUCGCGAGACAUGAGGAUCACCCAUGUAGAGA [fffmullin],30.2 nM
8,GGCCCGGACUUGGAAUGGGUGUUUCCUUCACGAGGACCGGUACGGCCGCCACUCGAAGACAUGAGGAUCACCCAUGUAGUCGACC [Soleti],20.3 nM
9,CAGCCUGAUUGGUAAAUCCCUCAUCGUGAUACCAGUCGAGUGAUCGACCCUUGGCAGCACAUGAGGAUCACCCAUGUGCGCGUAA [Raisener],22 nM
10,GGGCAAGAGGGAAGGAGCGUCGGCUGGGUAACAUGAGGAUCACCCAUGUAGCACAUGGUGUGGCAGGUAGGUCGCCCUCUGCCCU [SS-ArgB9],71.1 nM
11,ACCAUGUAAUCAGAUACCAGACAUCUUUUAAAUCAUAUUACAUGAGGAUCACCCAUGUUGGUCCCUUGGCAGCUGAAAUAUUUCA [JR_Nu_SSTheophyB_Sub025],144 nM
12,GCAUCCUAGUCGGCCGCCACUGCAACAUGAGGAUCACCCAUGUCUGCAUCUUCAUGAUGCAGUAGCAGGACCGGGACUAGGAUGC [(T1)-(M1)-(M2)-(T)''-(M)'-(T)'-(T2)_Design1_2/18/17],69.4 nM
13,UCGUGUAUAACGGAUACCAGUGAGAAGGAUACAUGAGGAUCACCCAUGUGAGUUGAUCCACACCCUUGGCAGCUGUAUAUAUCUA [alamullin],103 nM
14,AUACAUGAGGAUCACCCAUGUCACACAGAAGGAGCGGCUGUAGAGCCAGGUAGGUCGCUGUACUGAAAAUACUUCAUACUCAUGU [#30 Exclusion - Arginine A],21.7 nM
15,AGAUUUAUUUUGACCGGGCUCAUUCCUGAAGGAGCGCAGAACAAUGCAGGUAGGUCGCAGGACAUGAGGAUCACCCAUGUCAAGC [Isaes],14.2 nM
16,ACGAUAGGACAUGAGGAUCACCCAUGUGAUACCAGCCUGGAAACAGGCCCUUGGCAGCACAAAUACUCCAGAAACCUAUCGAAAA [MAT - Exclusion Theophlline A - Mod of Eli - D5],103 nM
17,CAUGGGUGGUAUCACCCAUCCAUAGGUGAUACCAGCAUCGAAAGAUGCCCUUGGCAGCACCAACAUGAGGAUCACCCAUGUAAUA [(M)'-(T)'-(M)''-(T1)-(T2)-(M1)-(M2)_Design2],48.1 nM
18,GGUGGCGGGACUGAUACCAGCCACCACCGAUAGACCACAUGAGGAUCACCCAUGUUGGGUGGCCCUUGGCAGCAGUCUUGCGUCG [#1 Same State - Theophylline B Attempt #16 (HarryS)],35.9 nM
